Data from US20250288643A1 (FBD BIOLOGICS, published 2025).
Read-outs that look alike come from different tables or passages of the source.

T1: mouse CD47 (mouse, UniProt Q61735 19-140, limits assumed)
T1 sequence (looked up): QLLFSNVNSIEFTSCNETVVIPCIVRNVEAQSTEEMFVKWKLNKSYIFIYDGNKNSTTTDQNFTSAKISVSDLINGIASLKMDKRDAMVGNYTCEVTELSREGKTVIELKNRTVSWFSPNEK


Key:
human CD47 (hCD47) [1] = target: T2, human CD47 (hCD47) (human, UniProt Q08722 19-139, limits assumed); test: ELISA, coated hCD47 ECD Fc, supernatant, anti-c-Myc HRP
Method: (§1) 30 μl of the collected supernatant was added to the ELISA plates and incubated at 25° C. for 1 hour. After the incubation, goat anti-c-Myc HRP with a dilution ratio of 1:10000 was added to the plate, and TMB was added for color development. The absorbance value at 450 nm was measured using a Varioskan™ LUX plate reader.

mouse CD47 = target: T1, mouse CD47; test: ELISA, coated mouse CD47 ECD Fc, supernatant, anti-c-Myc HRP
Method: 100 μl of the collected supernatant was added to the ELISA plates and incubated at 25° C. for 1 hour. After the incubation, goat anti-c-Myc HRP with a dilution ratio of 1:10000 was added to the plate, and TMB was added for color development. The absorbance value at 450 nm was measured using a Varioskan™ LUX plate reader.

human CD47 (hCD47) [2] = target: T2, human CD47 (hCD47); test: blocking ELISA, coated hCD47 ECD Fc, supernatant + biotin-SIRPα ECD His
Method: (§2) 150 μl of the collected supernatant and 20 μl biotin-labeled SIRPα ECD His protein (final concentration: 2.5 μg/ml) were added to the ELISA plates and incubated at 25° C. for 1 hour. After the incubation, avidin HRP (BioLegend, Cat #: 79004) with a dilution ratio of 1:1000 was added to the plate, and TMB was added for color development. The absorbance value at 450 nm was measured using a Varioskan™ LUX plate reader.

human CD47 (hCD47) [3] = target: T2, human CD47 (hCD47); test: hCD47 binding OD over expression OD
Method: as §1

human CD47 (hCD47) [4] = target: T2, human CD47 (hCD47); test: ELISA, coated hCD47 ECD Fc, supernatant, anti-c-Myc HRP; remark: listed apart in the source
Method: as §1

human CD47 (hCD47) [5] = target: T2, human CD47 (hCD47); test: hCD47 binding OD over expression OD; remark: listed apart in the source
Method: as §1

human CD47 (hCD47) [6] = target: T2, human CD47 (hCD47); test: blocking ELISA, coated hCD47 ECD Fc, supernatant + biotin-SIRPα ECD His; remark: listed apart in the source
Method: as §2

T2 sequence (Q08722 19-139 limits assumed): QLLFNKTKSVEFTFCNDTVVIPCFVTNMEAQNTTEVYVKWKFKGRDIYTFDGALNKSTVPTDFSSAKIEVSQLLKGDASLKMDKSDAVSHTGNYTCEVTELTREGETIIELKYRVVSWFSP

| Binder | hCD47 binding (OD) (human CD47 (hCD47) [1]) | mCD47 binding (OD) (mouse CD47) | Blocking (OD) (human CD47 (hCD47) [2]) | Blocking ability (%) (human CD47 (hCD47) [2]) | hCD47 binding (B/E) (human CD47 (hCD47) [3]) | hCD47 binding (OD) (human CD47 (hCD47) [4]) | hCD47 binding (B/E) (human CD47 (hCD47) [5]) | Blocking (OD) (human CD47 (hCD47) [6]) | Blocking ability (%) (human CD47 (hCD47) [6]) |
| --- | --- | --- | --- | --- | --- | --- | --- | --- | --- |
| 4RP13-3-11A (designed binder, tested as bacterial supernatant; also called S-2; hSIRPα-mt3 (IgV domain)) hSIRPα IgV domain mutant: EEELQVIQPDKSVSVAAGESAILHCTVTSLWPVGPIQWFRGAGPARELIYNQKAWPFPRVTTVSESTKRENMDFSISISNITPADAGTYYCVKFRKGSPDTEFKSGAGTELSVRAKPS | 1.67 OD | 0.348 OD | 0.319 OD | 93.3% | 1.53 | – | – | – | – |
| 2R-1-10B (designed binder, tested as bacterial supernatant; also called hSIRPα-mt6 (IgV domain)) hSIRPα IgV domain mutant: EEELQVIQPDKSVSVAAGESAILHCTVTSLIPVGPIQWFRGAGPARELIYNQKNLIFPRVTTVSESGKRENMDFSISISNITPADAGTYYCVKFRKGSPDTEFKSGAGTELSVRAKPS | – | – | – | – | – | 0.51 OD | 0.46 | 1.37 OD | 27.2% |
| 2R-1-7B (designed binder, tested as bacterial supernatant; also called hSIRPα-mt7 (IgV domain)) hSIRPα IgV domain mutant: EEELQVIQPDKSVSVAAGESAILHCIVTSLIPVGPIQWFRGAGPARELIYNQKILTFPRVTTVSESTKRENYDFSISISNITPADAGTYYCVKFRKGSPDTEFKSGAGTELSVRAKPS | – | – | – | – | – | 0.687 OD | 0.78 | 1.43 OD | 23.3% |
| 4RP13-1-2G (designed binder, tested as bacterial supernatant; also called S-5; hSIRPα-mt4 (IgV domain)) hSIRPα IgV domain mutant: EEELQVIQPDKSVSVAAGESAILRCTVTSLWPVGPIQWFRGAGPARELIYNQKAFIFPRVTTVSESTKRGNMDFSISISNITPADAGTYYCVKFRKGSPDTEFKSGAGTELSVRAKPS | 1.94 OD | 0.412 OD | 0.194 OD | 96.9% | 2.27 | – | – | – | – |
| 4RP6-1-10A (designed binder, tested as bacterial supernatant; also called S-16; hSIRPα-mt13 (IgV domain)) hSIRPα IgV domain mutant: EEELQVIQPDKSVSVAAGESAILHCTVTSLLPVGPIQWFRGAGPARELIYNQKDFLFPRVTTVSESTKRENRDFSISISNITPADAGTYYCVKFRKGSPDTEFKSGAGTELSVRAKPS | 1.87 OD | 0.41 OD | 0.45 OD | 80.1% | 2.89 | 1.87 OD | 2.89 | 0.45 OD | 80.1% |
| 2R-1-4B (designed binder, tested as bacterial supernatant; also called hSIRPα-mt14 (IgV domain)) hSIRPα IgV domain mutant: EEELQVIQPDKSVSVAAGESAILHCTVTSLAPVGPIQWFRGAGPARELIYNQKLDSFPRVTTVSESTKRESMDFSISISNITPADAGTYYCVKFRKGSPDTEFKSGAGTELSVRAKPS | – | – | – | – | – | 0.946 OD | 0.77 | 1.36 OD | 27.9% |
| 2RP-1-3E (designed binder, tested as bacterial supernatant; also called S-7; hSIRPα-mt9 (IgV domain)) hSIRPα IgV domain mutant: EEELQVIQPDKSVSVAAGESAILTCTVTSLWPVGPIQWFRGAGPARELIYNQKGQNFPRVTTVSESTKRFNMDFSISISNITPADAGTYYCVKFRKGSPDTEFKSGAGTELSVRAKPS | 1.72 OD | – | 0.131 OD | 99.9% | 1.61 | – | – | – | – |

Results, then the binder that gave them:

| hCD47 binding (OD) (human CD47 (hCD47) [1]) | mCD47 binding (OD) (mouse CD47) | Blocking (OD) (human CD47 (hCD47) [2]) | Blocking ability (%) (human CD47 (hCD47) [2]) | hCD47 binding (B/E) (human CD47 (hCD47) [3]) | hCD47 binding (OD) (human CD47 (hCD47) [4]) | hCD47 binding (B/E) (human CD47 (hCD47) [5]) | Blocking (OD) (human CD47 (hCD47) [6]) | Blocking ability (%) (human CD47 (hCD47) [6]) | Binder |
| --- | --- | --- | --- | --- | --- | --- | --- | --- | --- |
| 1.9 OD | 0.293 OD | 0.215 OD | 95.8% | 2.44 | – | – | – | – | 4RP13-1-7A (designed binder, tested as bacterial supernatant; also called S-19; hSIRPα-mt8 (IgV domain)) hSIRPα IgV domain mutant: EEELQVIQPDKSVSVAAGESAILHCTVTSLKPVGPIQWFRGAGPARELIYNQKRDTFPRVTTVSESTKRENRDFSISISNITPADAGTYYCVKFRKGSPDTEFKSGAGTELSVRAKPS |
| 1.86 OD | – | 0.21 OD | 96.3% | 1.65 | – | – | – | – | 4RP13-4-5C (designed binder, tested as bacterial supernatant; also called S-21; hSIRPα-mt5 (IgV domain)) hSIRPα IgV domain mutant: EEELQVIQPDKSVSVAAGESAILNCTVTSLIPVGPIQWFRGAGPARELIYNQKHQTFPRVTTVSEQTKRENRDFSISISNITPADAGTYYCVKFRKGSPDTEFKSGAGTELSVRAKPS |
| 1.65 OD | – | 0.299 OD | 94.7% | 1.33 | – | – | – | – | 4RP13-3-10B (designed binder, tested as bacterial supernatant; also called S-26; hSIRPα-mt12 (IgV domain)) hSIRPα IgV domain mutant: EEELQVIQPDKSVSVAAGESAILHCTVTSLYPVGPIQWFRGAGPARELIYNQKGRRFPRVTTVSESTKRANMDFSISISNITPADAGTYYCVKFRKGSPDTEFKSGAGTELSVRAKPS |
| 1.79 OD | – | 0.229 OD | 99.8% | 1.7 | – | – | – | – | 4RP13-3-4D (designed binder, tested as bacterial supernatant; also called S-11; hSIRPα-mt11 (IgV domain)) hSIRPα IgV domain mutant: EEELQVIQPDKSVSVAAGESAILHCTVTSLLPVGPIQWFRGAGPARELIYNQKSKVFPRVTTVSESTKRRNMDFSISISNITPADAGTYYCVKFRKGSPDTEFKSGAGTELSVRAKPS |
| – | – | – | – | – | 1.65 OD | 1.01 | 1.11 OD | 46.3% | 4RP13-5-6G (designed binder, tested as bacterial supernatant; also called hSIRPα-mt15 (IgV domain)) hSIRPα IgV domain mutant: EEELQVIQPDKSVSVAAGESAILRCTVTSLTPVGPIQWFRGAGPARELIYNQKAKQFPRVTTVSESTKRENMIFSISISNITPADAGTYYCVKFRKGSPDTEFKSGAGTELSVRAKPS |
| 1.49 OD | – | 0.332 OD | 92.4% | 1.25 | 1.49 OD | 1.25 | 0.332 OD | 92.4% | 4RP13-3-7B (designed binder, tested as bacterial supernatant; also called S-28; hSIRPα-mt10 (IgV domain)) hSIRPα IgV domain mutant: EEELQVIQPDKSVSVAAGESAILTCTVTSLYPVGPIQWFRGAGPARELIYNQKRQTFPRVTTVSESTKRFNMDFSISISNITPADAGTYYCVKFRKGSPDTEFKSGAGTELSVRAKPS |
